Experimental data: the nanobody polyreactivity screen of Harvey et al. (2022)

Test: yeast display, Sf9 membrane polyspecificity reagent, FACS + sequencing; frameworks hold sequencing errors
In short: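 In a synthetic yeast display library (Saccharomyces cerevisiae BJ5465), nanobody expression was induced with galactose for 36–48 hours. FACS gates were set low and high (top ~1%) using anti-HA fluorescence for expression and streptavidin fluorescence for binding of the Sf9 membrane reagent. Each polyreactivity label is drawn from the gate of origin.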

Sequence	polyreactivity (PSR sort gate)
QVQLVESGGGLVQAGGSLRLSCAASGRTFHSNDMGWYRQAPGKERELVAAISSSDGITYYADSVKGRFTISRDNAKNTVYLQMNSLKQEDNAVYYCAARRYRSGYYSFYFWGQGTQVTVSS	high polyreactivity
QVQLVESGGGLVQAGGSLRLICAASGSTFYIYAMGWYRQAPGKERELGATISSTGSTHYADSVKGRFTISRDNAKNTVYLQMNSLKPEDTAVYYCNRVYFGRYSRRDHWGQGTQVTVSS	high polyreactivity
QVQLVESGGGLVQAGGSLRLSCAASGFTFYPYAMGWYRQAPGKERELVARITWSGGSTSYADSVKGRFTISRDNAKNTVYLQMNSLKPEDTAVYYCSKAYHHSEFDYWGLGTQVTVSS	high polyreactivity
QDQLVESRGGIVQAGGSLRLSCAASGSTFRLYAMGWYRQAPGKERELVAAISSGGTTKYADSVKGRFTNSRDNAKNTVYLQMNSLTPEDTAVYYCNAVYHWGNPGEYATLPRYDYWGQGTQVNVSS	high polyreactivity
QVQLVESGGGLVQAGGSLRLSCAASGLIFYYYVMGWYRQAPGKERELVARISTSGGSTYYADSVKGRFTISRDNAKNTVYLQMNSLKPEDTAVYYCAADHYGGRDYWGQGTQVTVSS	low polyreactivity
QVQLVESGGGLVQAGGSLRLSCAASGFTLDWYVMGWYRQAPGKERELVAAISSSGGRTYYADSVKGRFTISRDNAKNTVYLQRNSLKPEDTAVYYCAARNKYGGYPYGYDYWGQGTQVTVSS	high polyreactivity
QVQLVESGGGLVQAGGSLRLSCAASGSIFRIYAMGWYRQAPGKERELVAAISTSGVRTYYADSVKGRFTISRDNAKNTVYLQMNSLKPEDTAVYYCNARYVRPRGTGDFDYWGQGTQVTVSS	high polyreactivity
QVQLVESGGGLVQAGGSLRLSCAASGFTFSSNAMGWYRQAPGKQRELVAAISKGGGSTYYADSVKGRFTISRDNAKNTGYLQMNSLKPEDTAVYYCAKEYDTYAYTYPYNYWGQGTQVTVSS	high polyreactivity
QVQLVETGGGLVQAGGSLRLSCAASGITFVKYAMGWYRQAPGKERELVAAISGSGGSTSYADSVKGRFTISRDNAKNTVYLQMNSLKPEDTAVYYCNKAIVRYPKTRDYWGQGTQVTVSS	low polyreactivity
QVQLVESGGGLVQAGGSLRLSCAASGSTFYVNDMGWYRQAPGKERELVATISSGSSTYYADSVKGRFTISRDNAKNTVYLQMNSLKPEDTAVYYCAADGVAEEGFDARYDYWGQGTQVTVSS	low polyreactivity
QVQLVESGGRLVQAGGSLRLSCAASGSIFVHNAMGWYRQAPGKERDLVAANTWSGGSTYYADSVKGRFTISRDNAKNTVYLQMNSVKPEDTAVYYCAAEDVAAQWAYESPTSYWYYYWGQGTQVTVSS	low polyreactivity
QVQLVESGGGLVQAGGSLRLSCAASGSTFTVYDMGWYRQAPGKERELVAGISRRGSSTYYADSVKGRFTISRDNAKNTVYLQMNSLKPEDTAVYYCAARGAVIRYPDKRYPVRYDYWGQGTQVTVSS	high polyreactivity
QVQLVESGGGLVQAGGSLRLSCAASGRTFNIYAMGWYRQEPGKERELVAAITNNGGRTYYADSVKGRFTISRDNAKNTVYLQMNSLKPEDTAVYYCAAASPWRYGFEYWGQGTQVTVSS	high polyreactivity
QVQLVESGGGLVQAGGSLRLSCAASGFTFVYYAMGWYRPAPGKERELVAAISRGGSTYYADSVKGRFTISRDNAKNTVYLQMNSLKPEDTAVYYCNAKKSGLYVSYPAYDYWGQGTQVTVSS	low polyreactivity
QVQLQESGGLVQAGGSLRLSCAASGSISGRNVMGWYRQAPGKEREFVASITDGSSTNYADSVKGRFTISRDNAKNTVFLQMNSLKPKDTAVYYCAAYAQGAKSFGYWGRGTQVTVSS	low polyreactivity
QVQLVESGGGLVQVGGSLRLSCAASGSILTDYGMGWNRPAPGKERELVAVIDFSSGSTYYADSVKGRFTISRDNAKNTVYLQMNSLKPEDTAVYYCAAGPDPLGEDYWGQGTQVTVSS	low polyreactivity
QVHLVESGGGLVQAGGSLRLSCAASGITFEGYAMGWYRQAPGKERELVAAIRSSGTSTYYADSVKGRFTISRDNAKNTVYLQMNSLKPEDTAVYYCNRARSSSRYDYWGQGTQVTVSS	low polyreactivity
QVQLVESGGGLVQAGGSLRLSCAASGSIFSINAMGWYRQAPGKERELVAAISWSGGSTYYADSVKGRFTISRDNAKNTVYLQMNSLKPEDTAVYYCAASYWDTEPGYREYDYWGQGTQVTVSS	low polyreactivity
QVQLVESGGGLVPAGGSLRLSCAASGGTFYTYVMGWSSQAPGKERELGAAIAGSGNTYYADSVKGRFTISRDKAKKTVYLQMNSLKPEDTAVYYCAKVLRMYPSGSWYGYWGQGTQVTVSS	high polyreactivity
QVQLVESGGGLVQAGGSLRLSCAASGYTFVDNAMGWYRQAPGKERELVAAINWDGASTYADSVKGRFTISRDNAKNTVYLQMNSLKPEDTAVYYCTASGKDIFNYVYQGYDYWGQGTQVTVSS	low polyreactivity
QVQLVESGGGLVQAGGSLRLSCAASGRTFVRNTMGWYRQAPGKERELVAAISGGGSTYYADSVKGRFTISSDNAKKTVYLQMNSLKPEDTAVYYCAATTRRQGGKRFDYWGQGTQVTVSS	high polyreactivity
QVQLVESGGGLVQAGGSLRLSCAASGSIFVKNAMGWYRQAPGKERELVAVITIRTATPYYADSVKGRFTISRDNAKNSVYLQMNSLKPEDTAVYYCAAAKRQRGYLQREGNYWGQGTQVTVSS	low polyreactivity

Sequence	polyreactivity (PSR sort gate)
QVQVVESGGGLVQAGGSLRLSCAASGSTFVRNAMGWYRQAPGKDRELVAAITTSGARTYYADSVKGRFTISRDNAKHTVYLQMNSLKPEDTAVYYCAAEYKGRTYRFDYWGQGTQVTVSS	low polyreactivity
QVQLVESGGGLVQAGGSLRLSCAASGFTLDWYVMGWYRQAPRKERELFAAISSSGGRTYYADSVKGRFTISRDNAKNSVYLQMNSLKPEDTAVYYCAAGTYYRVGRGRRVSFVYWGQGTQVTVSS	high polyreactivity
QFQLVESGGGLVQAGGSLRLSCAASGITFGDNAMGWYRQAPGKERELVAAISWSGDRTFYADSVKGRFTISRDNAKNTVYLQMNSLKPEDTAVYYCNAEIGWHNEGRLSTYDYWGQGTQVTVSS	low polyreactivity
QVQLVESGGGLVQAGGSLGLSCAASGSILYYNAMGWYRQAPGKERELVAAISWSGGSKYDADSVKGRFTISRDNAKNTVYLQMNSQKPEDTAVYYCLYYRSDEMDYWGQGTQVTVSS	high polyreactivity
QVQLVESGGGLVQAGGSLRLSCADSGNIFSTYAMGWYRQEPGKERELVASISENGGSTYYADSVKGRFTISRDNAKNTVYLQMNCLKPEDTAVYYCAIGPLYSLFFQHDAPYRYGYWGQGTQVTVSS	low polyreactivity
QVQLVESGGGLVQAGGSLRLSCAASGSTFRGYTMGWYRQAPGKEREFVATISSRGGSTNYADSVKGRFTISRDNAKNTVYLQMNSMKPEDTAVYYCNVRRVWWEWPRGDSWGQGTQVTVSS	high polyreactivity
QVQLVESGGGLVQAGGTLRLSCDPSGRTFYYYAMGWYRQAPGKERELVATIRSTGSTNYADSVKGRFTISRDNAKNTVYLKMNSLKPEDTAVYYCAAKPLQGVRRVEYWGQGTQVTVSS	high polyreactivity
QVQLVESGGGLVQAGGSLRLSCAASGRIFFYNTMGWYRQAPGKERELVATISWSGASTYYADSVKGRFTISRDNAKNTVYLQMNSLKPEDTAVDYCAAVTRYTGFDYWGQGTQVTVSS	high polyreactivity
QVQLVESGGGLVQAGGSLRLSCAASGRTFYKNTMGWYRQAPGKERELVATIYQRGGSTYYADSVKGRFTISRDNAKNTVYLQMNSLKREDTAVYYCNARKYTQSIHYDYWGQGTQVTVSS	high polyreactivity
QVQVVESGGGLVQAGGSLGLSCAASGGTFGYYAMGWYRQAPGKERELVAAINRSDGGTYYADSVKGRFTISRDKAKNTVYLQMTSLKPEDTAVYYCNADDFYYDEPYDYWGQGTQVTVSS	low polyreactivity
QVQLVESGGGLVQAGGSLRLSSAASGFTFFYYAMGWYRQAPGKERELVAAISASGGSTSYADSVKGRFTISRDNAKNTVYLQMNSLKPEDTAVYYCAARVYSVRSGYYYWGQGTQVTVSS	high polyreactivity
QVQLVESGGGLVQAGGSLRLSCAASGFTFVGYAMGWYRQAPGKERELVAAISSSGVSTYYADSVKGRFTISRDNAKNTVYLQMNSLKPEDTAVYYCNRVSVYRSSHLLWGGYWGQGTQVTVSS	low polyreactivity
QVQLVESGGGLVQAGGSLRLSCAASGRIFAYYAMGWYRQAPGKERELVAAINTSGATTNYADSVKGRFTISRDKAKNTVYLQMNSLKPEDTAVYYCAAWKGVYTYNYWGQGTQVTVSS	high polyreactivity
QVQLVESGGGLVQAGGSLRLSCAASGRIFAVYAMGWYRQAPGKERELVAAINWNDGSTYYADSVKGRFTISRDNAKNTVYLQMNSLKPEDTAVYYCAARALSRSVYGKSGYKYGYWGQGTQVTVSS	high polyreactivity
QVQLVESGGGLVQAGGSLRLSCAASGRIFLSNALGWYRQAPGKERELVAAINSGGNTDYADSVKGRFTISRDNAKNTVYLQMNSLKPEDTAVYYCAADAFSWDHDYWGQGTQVTVSS	low polyreactivity
QVQLVESGGGLVQAGGSLRLSCAASGRTFRVYTMGWYRQAPGKERELVAAISSRGGSTYYADSVKGRFTISRDNAKNTVYLQMYSLKPEDTAVYYCAASKFRSGGYDYWGQGTQVTVSS	high polyreactivity
QVQLVDSGGGLVQAGGSLRLSCAASGSIFYPYAMGWYRQAPGKEREFVAGITTRGGSTYYADSVKGRFTISRDNAKNTVYLQMNSLKPEDTAVYYCAAYSSVWPNFGYWGQGTQVTVSS	high polyreactivity
QVQLVESGGGLVQAGGSLRLSCAASGSTFGYYAMGWSRQAPGKERELVAAIRWSGGSTYADSVKGRFTISRDNAKNTVYLQMNSLKPEDTAVYYCAQYRWYGSVLGGYWGQGTQVTVSS	high polyreactivity
QVQLVESGGGLVQAGGSLRLSCAASGSIFYPYAMGWYRQAPGKERELVAAISYSGGSTYYADSVKGSFTISRDNAKNTVYLQMNSLKPEDTAVYYCNRRYWRRPYYKYDYWGQGTQVTVSS	high polyreactivity
QVQLEESGGGLVQAGGSLRLSFAASGRIFRRYAMGWYRQAPVKERELVAAISSRGGRTYYADSVKGRFTISRDNAKNTVYLQMNSLKPDDTAVYYCAAYYFFTDTYGPYEYWGQGTQVTVSS	high polyreactivity
QVLLVESGGGLVQAGGSLRLSCASSGNTFYVNVMGWYRQAPGKEREFVAAISTRGVSTSYADSVKGRYTISRDNAKNTVYLDMNTLKPEDTAVYYCAASFRRPQPKGTTYGYWGQGTQVTVSS	high polyreactivity
